Test results as given in PMC3142614.

Biological target: recombinant AvrM-A Δ28 with an N-terminal hexahistidine tag (Melampsora lini (flax rust))
Experiment: SEC-MALS

recombinant AvrM-A Δ28 with an N-terminal hexahistidine tag (natural protein)
stoichiometry N: 2
